From patent US20240301052A1 (LANOVA MEDICINES DEVELOPMENT, published 2024)
Where two headings read alike, the source gives them in different places.

T1: human SLC34A2 (human, UniProt O95436 1-690)
T1 construct: whole, on cells; also called human solute carrier 34 A2; NaPi2b
T1 sequence (looked up): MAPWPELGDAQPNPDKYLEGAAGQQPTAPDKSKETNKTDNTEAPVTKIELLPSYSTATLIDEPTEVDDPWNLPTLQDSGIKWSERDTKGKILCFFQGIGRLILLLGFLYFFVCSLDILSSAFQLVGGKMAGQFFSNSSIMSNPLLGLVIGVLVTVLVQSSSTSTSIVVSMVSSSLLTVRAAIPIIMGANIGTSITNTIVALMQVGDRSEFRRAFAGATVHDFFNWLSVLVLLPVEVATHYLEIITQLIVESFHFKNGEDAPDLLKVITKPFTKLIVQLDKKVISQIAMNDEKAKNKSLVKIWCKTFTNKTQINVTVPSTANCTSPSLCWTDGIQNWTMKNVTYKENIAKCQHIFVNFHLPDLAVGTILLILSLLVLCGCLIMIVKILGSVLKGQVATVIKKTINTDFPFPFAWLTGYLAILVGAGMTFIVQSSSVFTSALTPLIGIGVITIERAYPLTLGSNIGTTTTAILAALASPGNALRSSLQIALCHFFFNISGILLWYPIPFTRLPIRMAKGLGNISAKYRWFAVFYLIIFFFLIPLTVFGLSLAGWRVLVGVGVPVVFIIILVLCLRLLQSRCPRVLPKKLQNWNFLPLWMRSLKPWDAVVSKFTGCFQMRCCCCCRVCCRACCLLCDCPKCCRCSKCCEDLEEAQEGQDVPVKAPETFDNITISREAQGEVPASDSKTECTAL

T2: Rhesus SLC34A2 (Rhesus, UniProt F7HDA3 1-690)
T2 construct: whole, on cells
T2 sequence: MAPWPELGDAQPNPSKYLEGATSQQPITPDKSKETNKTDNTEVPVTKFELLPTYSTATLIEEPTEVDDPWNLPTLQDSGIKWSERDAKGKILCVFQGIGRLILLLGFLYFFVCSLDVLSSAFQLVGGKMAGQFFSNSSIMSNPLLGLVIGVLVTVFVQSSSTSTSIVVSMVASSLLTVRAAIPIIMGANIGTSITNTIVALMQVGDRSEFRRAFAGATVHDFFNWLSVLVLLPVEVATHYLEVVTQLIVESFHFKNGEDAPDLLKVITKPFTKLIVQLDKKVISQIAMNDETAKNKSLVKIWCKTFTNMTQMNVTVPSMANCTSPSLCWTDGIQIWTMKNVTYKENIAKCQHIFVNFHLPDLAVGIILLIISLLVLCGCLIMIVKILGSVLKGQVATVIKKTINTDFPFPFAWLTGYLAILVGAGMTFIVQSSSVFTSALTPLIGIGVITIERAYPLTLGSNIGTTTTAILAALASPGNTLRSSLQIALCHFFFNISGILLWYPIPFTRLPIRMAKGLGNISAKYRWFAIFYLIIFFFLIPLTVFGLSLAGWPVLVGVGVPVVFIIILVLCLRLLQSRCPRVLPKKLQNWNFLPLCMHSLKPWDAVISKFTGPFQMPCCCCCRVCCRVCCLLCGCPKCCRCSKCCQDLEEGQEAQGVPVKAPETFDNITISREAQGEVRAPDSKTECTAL


Experiments:
[1] = target: T1, human SLC34A2; test: FACS, RMG-1 cells
How it was run: (§1)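 Cell-surface binding by flow cytometry: hu Abs on SLC34A2-expressing cells, 60 min at 4° C.; 2× FACS buffer wash; fluorescent-conjugated secondary 30 min at 4° C.; 2× wash, then acquisition.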

[2] = target: T1, human SLC34A2; test: FACS, OVCAR3 cells
How it was run: as §1

[3] = target: T1, human SLC34A2; test: FACS, OVCAR3 cells; remark: listed apart in the source
[4] = target: T1, human SLC34A2; test: FACS, MDAH2774 cells
[5] = target: T1, human SLC34A2; test: cell-based or functional assay
[6] = target: T1, human SLC34A2; test: FACS, HEK293/human SLC34A2 cells
How it was run: as §1

[7] = target: T1, human SLC34A2; test: FACS, HEK293/human SLC34A2 cells; remark: listed apart in the source
[8] = target: T2, Rhesus SLC34A2; test: FACS, HEK293/Rhesus SLC34A2 cells
[9] = target: T1, human SLC34A2; test: FACS, OVCAR3 cells; remark: listed apart in the source
[10] = target: T1, human SLC34A2; test: FACS, HEK293/human SLC34A2 cells; remark: listed apart in the source
Experimental: (§2) Briefly, OVCAR3 cells or HEK293 cells expressing human SLC34A2 were incubated with chimeric antibodies (from 200 nM, 4 folds dilution, 8 points). After incubation at 4° C. for 60 minutes, the cells were washed with FACS buffer twice, then stained with fluorescent conjugated secondary antibody at 4° C. for 30 minutes. After that the cells were washed twice and analyzed by flow cytometry.

[11] = target: T1, human SLC34A2; test: FACS, HEK293/human SLC34A2 cells; remark: listed apart in the source
Experimental: The PTM-derisked VH chains were first tested for their impact on target binding. Cell based binding of PTM Abs on human SLC34A2 expressing cells were assessed using flow cytometry. Briefly, the HEK293/H_SLC34A2 cells were incubated with PTM Abs (from 200 nM, 4 folds dilution, 8 points). After incubation at 4° C. for 60 minutes, the cells were washed with FACS buffer twice, then stained with fluorescent conjugated secondary antibody at 4° C. for 30 minutes. After that the cells were washed twice and analyzed by flow cytometry.

[12] = target: T2, Rhesus SLC34A2; test: FACS, HEK293/Rhesus SLC34A2 cells; remark: listed apart in the source
Experimental: as §2, with “the Rhesus SLC34A2 expressing HEK293 engineering” for “OVCAR3”, “(HEK293/Rhesus_SLC34A2)” for “or HEK293 cells expressing human SLC34A2”, “Abs” for “antibodies”

EC50 [1] [nM] | Top [1] [MFI] | EC50 [2] [nM] | EC50 [4] [nM] | ADCC reporter EC50 [5] [nM] | ADCC reporter Top (MFI) [5] [MFI] | EC50 [6] [nM] | Top [6] [MFI] | EC50 [8] [nM] | Top (MFI) [8] [MFI] | EC50 [9] [nM] | Top (MFI) [9] [MFI] | EC50 [10] [nM] | Top (MFI) [10] [MFI] | EC50 [11] [nM] | Top (MFI) [11] [MFI] | EC50 [12] [nM] | Top (MFI) [12] [MFI] | Binder | further results
28.3 | 12200 | 9.12 | 15.1 | 1.69 | 116000 | 5.49 | 36800 | 1.6 | 11800 |  |  |  |  |  |  |  |  | 63A11D5B4.p1.z9 hIgG1 (antibody, V domains shown, humanized hIgG1) VH: QVQLVQSGAEVVKPGASVKMSCKTSGYTFITYNMHWVRQAPGQGLEWIGAIYPGSGDTSYNQKFKGRVTLTADKSTSTAYMELSSLRSEDTAVYYCSISTIITTGAVDYWGQGTLVTVSS VL: DIQMTQSPSSLSASVGDRVTITCKASQDVGTAVAWYQQKPGKVPKLLIYWTSTRHTGVPSRFSGSGSGTDFTLTISSLQPEDVATYYCQQYSRIPLTFGGGTKVEIK | EC50 [3]: 9.1 nM; EC50 [7]: 5.87 nM
1.76 | 9730 | 2.5 |  | 1.96 | 133000 | 1.77 | 32100 | 1.2 | 11400 | 1.6 | 63300 | 1.06 | 44800 | 1.57 | 28600 | 0.95 | 12200 | xi91C9F1 hIgG1 (antibody, V domains shown, chimeric, hIgG1) VH: EVQLQQSGPELVKPGTSVKISCKTSGFFFTEYIIHWVKQSHGRSLEWIGGIIPNNGVTNYKQNFRGKAALTADKSSNTAYMELRSLTSEDSAVYYCARWRNGYYSAMDSWGQGTSVTVSS VL: DIVVTQSHKFMSTSLGDRVSITCTASQDVGTAVAWYQQKPGHSPKLLIYWASTRHTGVPERFTGSGSGTDFTLTITNVQSEDLADYFCQQYRTSPLTFGVGTKLELK | Top [2]: 21000 MFI
3.69 | 10800 | 3.76 | 2.82 | 5.39 | 123000 | 2.34 | 33600 | 1.4 | 14400 |  |  |  |  |  |  |  |  | 62G10E4G8.p3.z15 hIgG1 (antibody, V domains shown, humanized hIgG1) VH: QVQLVQSGAEVVKPGASVKMSCKASGYTFPSYITHWVKQAPGQGLEWIGAIYPGNADTSYIQKFKGRATLTADKSTSTAYMELSSLRSEDTAVYYCARGTYGTSAWFTYWGQGTLVTVSS VL: EIVLTQSPATLSVSPGERATLSCRARQNIGNNLYWYQQKPGQSPRLLIKYASQSISGIPSRFSGSGSGTDFTLTISSLQSEDFAVYFCQQSFSWPLTFGQGTKLEIK | EC50 [3]: 3.8 nM; EC50 [7]: 2.86 nM
7.97 | 11300 | 3.73 |  | 4.56 | 101000 | 4.26 | 32700 | 1.8 | 13300 | 5.8 | 71100 | 1.28 | 101000 | 1.95 | 30300 | 2.53 | 12000 | xi62G10E4G8 hIgG1 (antibody, V domains shown, chimeric, hIgG1) VH: QVQLQQSGAEVVKPGASVKMSCKASGYTFPSYITHWVKQTPGQGLEWIGAIYPGNGDTSYIQKFKGKATLTADKSSSTAYMQLSSLTSEDSAVYYCARGTYGTSAWFTYWGQGTLVTVSA VL: DIVLTQSPATLSVTPGDSVSLSCRARQNIGNNLYWYQQKSHESPRLLIKYASQSISGIPSRFSGSGSGTDFTLTINSVETEDFGVYFCQQSFSWPLTFGAGTKLELK | 
 |  |  | 7.09 |  |  |  |  |  |  |  |  |  |  |  |  |  |  | XMT-1536 (antibody, INN chains, looked up, V domains shown, rilsodotin auristatin payload) VH: QVQLVQSGAEVVKPGASVKMSCKASGYTFTGYNIHWVKQAPGQGLEWIGAIYPGNGDTSYKQKFRGRATLTADTSTSTVYMELSSLRSEDSAVYYCARGETARATFAYWGQGTLVTVSS VL: DIQMTQSPSSLSASVGDRVTITCSASQDIGNFLNWYQQKPGKTVKVLIYYTSSLYSGVPSRFSGSGSGTDYTLTISSLQPEDFATYYCQQYSKLPLTFGQGTKLELK | 
14.4 | 11200 | 10.5 |  |  |  | 5.21 | 35600 | 2.3 | 15200 | 9.2 | 78600 | 1.5 | 103000 | 2.13 | 30400 | 2.56 | 15100 | xi63A11D5B4 hIgG1 (antibody, V domains shown, chimeric, hIgG1) VH: QVQLQQPGAELVKPGASVKMSCRTSGYTFITYNMHWVKQTPGQGREWIGAIYPGNGDTSYNQKFKGKATLTADKSSSTAYMQLNSLTSEDSAVYYCSISTIITTGAVDYWGQGTSVTVAS VL: DIVMTQSHKFMSTSVGDRVSITCKASQDVGTAVAWYQQKAGQSPKLLIYWTSTRHTGVPDRFTGSGSGTDFTLIIRSLQSEDLADYFCQQYSRIPLTFGSGTKLEIK | 
1.19 | 11500 | 0.74 |  | 1.26 | 109000 | 1.63 | 40800 | 0.9 | 17400 | 1.1 | 69100 | 0.96 | 107000 | 1.14 | 32200 | 1.26 | 17000 | xi30H9B8F9 hIgG1 (antibody, V domains shown, chimeric, hIgG1) VH: QVQLQQPGAELVKPGASVKMSCKTSGYTFTTNNMHWVKQTPGQGLEWIGAIYPGNGATAYNQKFKGKATLTADKSSSTAYMQLSSLTSEASAVYYCARGMYGHGAMDYWGQGTSVIVSS VL: DIVMTQSHKFMSRSVGDRVRITCKASQDVGTAVAWYQQKPGQSPKLLIYWATTRHSGVPDRFTGSGSGTDFIFTISNVQSEDLADYFCQQYSSNPLTFGAGTKLELK | 
